Test results: publication PMC5610242, “Stapled peptide inhibitors of RAB25 target context-specific phenotypes in cancer” (Nature Communications, 2017)
Bridge positions count the residues as written; N and C are the ends. Square brackets hold non-standard residues; d marks the D form. Ends that are not written are not given here. Peptide text beside a SMILES is read from it. * marks the point of attachment. FITC = O=C1OC2(c3ccc(O)cc3Oc3cc(O)ccc32)c2ccc(NC(=S)*)cc21; Met(O) = CS(=O)CC[C@H](N)C(=O)O; S5 = C=CCCC[C@](C)(N)C(=O)O; Nle = CCCC[C@H](N)C(=O)O; PEG = not defined here; βAla = NCCC(=O)O

T1: RAB25 (Homo sapiens, UniProt P57735)
T1 construct: GST-RAB25 (1–180) in pET41 Ek/LIC; made in house; host or cells: E. coli BL21
T1 sequence (P57735 1-180): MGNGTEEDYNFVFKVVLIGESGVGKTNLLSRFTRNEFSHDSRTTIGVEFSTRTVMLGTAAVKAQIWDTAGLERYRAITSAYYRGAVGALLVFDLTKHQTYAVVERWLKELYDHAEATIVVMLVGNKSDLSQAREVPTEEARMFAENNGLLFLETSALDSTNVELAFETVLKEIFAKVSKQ

T2: RAB11a (activated Q70L mutant) (Homo sapiens, UniProt P62491, Q70L)
T2 construct: GST-RAB11a (1–173, Q70L mutant) in pGEX5x-1; made in house; host or cells: E. coli BL21
T2 sequence (P62491 1-173 Q70L): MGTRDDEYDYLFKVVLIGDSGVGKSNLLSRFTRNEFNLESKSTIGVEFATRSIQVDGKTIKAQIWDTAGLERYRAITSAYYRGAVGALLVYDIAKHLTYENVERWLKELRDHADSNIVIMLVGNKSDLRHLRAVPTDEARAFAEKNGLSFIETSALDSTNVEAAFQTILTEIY

T3: GST-RAB11a (1-173, Q70L mutant) (UniProt P62491 1-173, Q70L)
T3 construct: source: E. coli BL21, purified (glutathione sepharose, Superdex 75 gel filtration)
T3 sequence (looked up): T2 sequence (P62491 1-173 Q70L)

T4: His6-RAB25 (1–180) (UniProt P57735 1-180)
T4 chain: T1 sequence (P57735 1-180)

T5: GST-RAB25 (1-180) (UniProt P57735 1-180)
T5 construct: RAB25, residues 1-180, in pET41 Ek/LIC; source: E. coli BL21, purified (glutathione sepharose, Superdex 75 gel filtration)
T5 sequence (looked up): T1 sequence (P57735 1-180)

B1: FITC-RFP5 (FIP3 RAB-binding domain peptide with oxidised methionine) (peptide)
peptide: {FITC-PEG}-KQEEINFRLQDYIDRIIVAI[Met(O)]ETNPSILEVK
modifications: reading uncertain
notes: also called fRFP5; source: synthetic peptide (separable byproduct of chemical synthesis, HPLC purified)
B2: FITC-RFP3 (unmodified FIP3 RAB-binding domain peptide) (peptide)
peptide: {FITC-PEG}-KQEEINFRLQDYIDRIIVAIMETNPSILEVK
modifications: reading uncertain
notes: also called fRFP3; FIP3 peptide; source: synthetic peptide (Fmoc solid phase, HPLC purified)
B3: FITC-RFP1 (unmodified FIP1 RAB-binding domain peptide) (peptide)
peptide: {FITC-PEG}-KKEFQVRELEDYIDNLLVRVMEETPNILRIPA
modifications: reading uncertain
notes: also called fRFP1; FIP1 peptide; source: synthetic peptide (Fmoc solid phase, HPLC purified)
B4: FITC-RFP2 (unmodified FIP2 RAB-binding domain peptide) (peptide)
peptide: {FITC-PEG}-ERDTHIRELEDYIDNLLVRVMEETPSILRVPR
modifications: reading uncertain
notes: limits worked out from the printed L485, V486 and M489; also called fRFP2; FIP2 peptide; source: synthetic peptide (Fmoc solid phase, HPLC purified)
B5: FITC-RFP4 (unmodified FIP4 RAB-binding domain peptide) (peptide)
peptide: {FITC-PEG}-EQEEINFRLRQYMDKIILAILDHNPSILEIKH
modifications: reading uncertain
notes: also called fRFP4; FIP4 peptide; source: synthetic peptide (Fmoc solid phase, HPLC purified)

Assays:
RAB25 = biological target: T1, RAB25; test: Fluorescence polarization binding of FITC-labeled RFP peptides to RAB25; details: FP, 30 min room temperature
Method: (§1) Fluorescence polarization assays were performed with for GST-RAB25 and GST-RAB11a to quantify binding to FITC-labeled unmodified and stapled RFP peptides. Initial fluorescence polarization measurements for RFP1−RFP13 were made by incubating FITC-RFP peptides (25 nM) with threefold dilutions of a given protein in FP buffer, consisting of 20 mM Tris pH 8.0, 150 mM NaCl, 5 mM MgCl2, 2 mM DTT, 10 μM GTP and 2% glycerol. Dilutions and incubations were performed in 96-well, black flat-bottom plates (Nunc) to a total volume of 100 μL, and equilibrated at room temperature for 30 min. Polarization was measured on a Spetramax-M5 multi-label plate reader (Molecular Devices) with λ ex = 485 nm and λ em = 525 nm. Polarization values were determined using the equation: P = (V − H)/(V + H), where P denotes polarization, V denotes vertical emission intensity and H represents horizontal emission intensity. Fraction bound was calculated using the equilibrium maximum polarization value obtained for a given protein among ligands, to which background-subtracted fluorescence polarization values were internally normalized. Fluorescence polarization measurements for FITC-RFP14, 24, 26, 31, and 32 were performed as detailed above with the exception that 10 nM FITC-ligand was used.

[1] = biological target: T2, RAB11a (activated Q70L mutant); test: Fluorescence polarization binding of FITC-labeled RFP peptides to RAB11a; details: FP
Method: as §1

[2] = biological target: T3, GST-RAB11a (1-173, Q70L mutant); test: fluorescence polarisation; FITC-peptide 25 nM with threefold dilutions of GST-RAB protein; 20 mM Tris pH 8.0, 150 mM NaCl, 5 mM MgCl2, 2 mM DTT, 10 µM GTP, 2% glycerol; room temperature, 30 min; apparent Kd from a sigmoidal (4-parameter) fit, 95% confidence interval; details: both partners purified
GST-RAB25 (1-180) [3] = biological target: GST-RAB25 (1-180) (UniProt P57735); test: as above
His6-RAB25 (1–180) = biological target: T4, His6-RAB25 (1–180); test: competition with bio-RFP14 (ALPHAscreen)
GST-RAB25 (1-180) [4] = biological target: T5, GST-RAB25 (1-180); test: fluorescence polarisation; FITC-peptide 25 nM with threefold dilutions of GST-RAB protein; 20 mM Tris pH 8.0, 150 mM NaCl, 5 mM MgCl2, 2 mM DTT, 10 µM GTP, 2% glycerol; room temperature, 30 min; apparent Kd from a sigmoidal (4-parameter) fit, 95% confidence interval; details: both partners purified
[5] = biological target: T3, GST-RAB11a (1-173, Q70L mutant); test: fluorescence polarisation; as for RFP1-13 but FITC-ligand 10 nM, with threefold dilutions of GST-RAB protein; 20 mM Tris pH 8.0, 150 mM NaCl, 5 mM MgCl2, 2 mM DTT, 10 µM GTP, 2% glycerol; room temperature, 30 min; apparent Kd from a sigmoidal (4-parameter) fit, 95% confidence interval; details: both partners purified
GST-RAB25 (1-180) [6] = biological target: T5, GST-RAB25 (1-180); test: as above; details: both partners purified

Row | Molecule | Kd [2] [µM] | Kd (GST-RAB25 (1-180) [4]) [µM] | also measured
1 | CC[C@H](C)[C@H](NC(=O)[C@H](CCCNC(=N)N)NC(=O)[C@H](C)NC(=O)[C@H](C)NC(=O)[C@]1(C)CCCC=CCCC[C@](C)(NC(=O)[C@H](CC(N)=O)NC(=O)[C@H](CCC(N)=O)NC(=O)[C@H](CC(C)C)NC(=O)[C@H](CCCNC(=N)N)NC(=O)[C@H](Cc2ccccc2)NC(=O)[C@H](CC(N)=O)NC(=O)[C@@H](NC(=O)[C@H](CCCNC(=N)N)NC(=O)CCNC(=O)[C@@H](N)Cc2c[nH]c3ccccc23)[C@@H](C)CC)C(=O)N[C@@H]([C@@H](C)CC)C(=O)N[C@@H](CC(=O)O)C(=O)N[C@@H](CCCNC(=N)N)C(=O)N1)C(=O)N[C@@H](C)C(=O)N[C@@H](CCC(=O)O)C(=O)N[C@H](C(=O)N[C@@H](CC(N)=O)C(=O)N1CCC[C@H]1C(=O)N[C@@H](CO)C(=O)N[C@H](C(=O)N[C@@H](CC(C)C)C(=O)N[C@@H](CCCNC(=N)N)C(=O)N[C@H](C(=O)N[C@@H](CCCCN)C(N)=O)C(C)C)[C@@H](C)CC)[C@@H](C)O [RFP32] (H-W[βAla]RINFRLQN[S5]IDR[S5]AARIAETNPSILRVK-NH2; staple 11-15) |  |  | Kd (RAB25; 10 nM FITC-ligand, GST-RAB25, FP buffer pH 8.0 with 10 μM GTP, mean with 95% C.I., triplicate, read-out: apparent Kd (95% C.I.) RAB25): > 5 µM; Kd ([1]; 10 nM FITC-ligand, GST-RAB11a (1–173, Q70L), FP buffer pH 8.0 with 10 μM GTP, 30 min room temperature, mean with 95% C.I., triplicate, read-out: apparent Kd (95% C.I.) RAB11a): > 5 µM
2 | RFP5: peptide with oxidation of a methionine involved in binding, a separable byproduct of chemical synthesis ({FITC-PEG}-KQEEINFRLQDYIDRIIVAI[Met(O)]ETNPSILEVK; reading uncertain) |  |  | loss of binding affinity for RAB11a on methionine oxidation ([1]; relative to non-oxidised peptide): ~ fivefold
3 | FIP2: unmodified Class-I peptide encompassing the RAB-binding domain of FIP2, FITC-labeled ({FITC-PEG}-ERDTHIRELEDYIDNLLVRVMEETPSILRVPR; reading uncertain) |  |  | binding to RAB25 (in words) (RAB25; 25 nM FITC-RFP peptide): essentially no binding; binding to RAB11a (in words) ([1]; 25 nM FITC-RFP peptide, 30 min room temperature): essentially no binding
4 | B1 | > 5 |  | Kd (GST-RAB25 (1-180) [3]): > 5 µM
5 | B2 | 2.3 |  | Kd (GST-RAB25 (1-180) [3]): > 5 µM
6 | KQEEINFRLQDYIDRIIVAIMETNPSILEVK [FIP3 peptide (residues 726–756)] |  |  | IC50 (His6-RAB25 (1–180)): > 10 µM
7 | B3 | > 5 | > 5 | 
8 | {FITC-PEG-βAla}-RQVRELE[S5]YID[S5]LLVRVMEETPNILRIPR (staple 8-12; reading uncertain) [FITC-RFP6 (FIP1-derived stapled peptide, 'YID' staple)] | > 5 | > 5 | 
9 | {FITC-PEG-βAla}-RQVRELEDYID[S5]LLV[S5]VMEETPNILRIPR (staple 12-16; reading uncertain) [FITC-RFP7 (FIP1-derived stapled peptide, 'IIV' staple)] | 0.11 | 0.51 | 
10 | {FITC-PEG-βAla}-RQVRELEDYIDRLLV[S5]VME[S5]TPNILRIPR (staple 16-20; reading uncertain) [FITC-RFP8 (FIP1-derived stapled peptide, 'IME' staple)] | 0.04 | 0.17 | 
11 | {FITC-PEG-βAla}-RQVRELED[S5]IDR[S5]LVRVMEETPNILRIPR (staple 9-13; reading uncertain) [FITC-RFP9 (FIP1-derived stapled peptide, 'IDR' staple)] | 2.4 | 1.2 | 
12 | {FITC-PEG-βAla}-RINFRLQ[S5]YID[S5]IIVAIMETNPSILEVK (staple 8-12; reading uncertain) [FITC-RFP10 (FIP3-derived stapled peptide, 'YID' staple)] | > 5 | > 5 | 
13 | {FITC-PEG-βAla}-RINFRLQDYID[S5]IIV[S5]IMETNPSILEVK (staple 12-16; reading uncertain) [FITC-RFP11 (FIP3-derived stapled peptide, 'IIV' staple)] | 0.007 | 0.05 | 
14 | {FITC-PEG-βAla}-RINFRLQDYIDRIIV[S5]IME[S5]NPSILEVK (staple 16-20; reading uncertain) [FITC-RFP12 (FIP3-derived stapled peptide, 'IME' staple)] | 0.02 | 0.03 | 
15 | {FITC-PEG-βAla}-RINFRLQD[S5]IDR[S5]IVAIMETNPSILEVK (staple 9-13; reading uncertain) [FITC-RFP13 (FIP3-derived stapled peptide, 'IDR' staple)] | 0.08 | 0.04 | 
16 | {FITC-PEG-βAla}-RQVRELENYIDRLLV[S5]V[Nle]E[S5]TPNILRIPR (staple 16-20; reading uncertain) [FITC-RFP14 (optimized stapled peptide, 'IME' staple)] |  |  | Kd [5]: 0.32 µM
17 | {FITC-PEG-βAla}-RINFRLQN[S5]IDR[S5]IVRIFETNPSILRVK (staple 9-13; reading uncertain) [FITC-RFP24 (optimized stapled peptide, 'IDR' staple)] |  |  | Kd (GST-RAB25 (1-180) [6]): 0.16 µM; Kd [5]: 0.56 µM
18 | B4 | > 5 | > 5 | 
19 | {FITC-PEG-βAla}-RINFRLQN[S5]IDR[S5]IVRI[Nle]ETNPSILRVK (staple 9-13; reading uncertain) [FITC-RFP26 (optimized stapled peptide, 'IDR' staple)] |  |  | Kd (GST-RAB25 (1-180) [6]): 0.02 µM; Kd [5]: 0.09 µM
20 | B5 | 0.93 | 2.3 | 
